From a protein production outcome set (Wang et al. 2014)

Test: label from the status in PepcDB records
For “MESVTFEDVAVEFIQEWALLDSARRSLCKYRMLDQCRTLASRGTPPCKPSCVSQLGQRAEPKATERGILRATGVAWESQLKPEELPSMQDLLEEASSRDMQMGPGLFLRMQLVPSIEERETPLTREDRPALQEPPWSLGCTLPLLSLLLPSCPEPPLVLLDSSSAPDRHLGSTLDTEARGIP”, the protein production was “failed”.
With “METAITRMLGIRYPIVAAPMFLVSNAPLLQAVAEAGGIGVIPSLNFRTHQAFREFLESFPEGVPFGVNLILKGNPRLEEDLEAVVERRVPLVVTSLGDPTRVVERVKAYGGVVWCDVVGLRHGRKAVEAGADALVAVACGAGGHAGRVSPFVLGPWLREELGVPVLIAGGIATGRQVLAALALGDGVYIGTRFIATLESGAPLEYKEALLRAQPEDIEYTPEVTGVPANFLRESLERFRQGGGKAWKEVYSAGHGVAFIREIPSAKEVVARLVEEYRAAKAGLP” the protein production was “failed”.
For “METALVSIIMPMYNAGKFLSKSIESVLEQTYQNWELLLIDDGSKDDSIDIALAFMEKDSRIFLLKNEQNMGIAKTRNKGIEASKGQYIAFLDSDDLWLPNKLEVQVKWMEEKKLLFTCSSYFVCNENGNITHERNFSEGPQTYQDLLKTNTIGCLTVVVESNLLKRHLMPDLKHEDYATWLNILKEINTVYFINEKLAIYRKLTTSTSSNKWNTISWVWKILRQNEQFSVIKSSFYLMRFLFYTTFKYAKNELEHHHHHH”, the protein production was “not failed”.
For “METIKIGVVGLGTVGTGVVKMLQAHQEKISEITGRKLELACVVVHNLKKHEQVDLGDVQMTDQIATLLDDPSIQIMVEVMGSIHPAKEYITQALQAGKHVVTANKDLIAQYGRELVQIARENHRDLFYEASVAGGIPILRTIDNSFAADRIQRVMGIVNGTTNYIMTQMLTKHWSYDQALSSAQDLGFAESDPTNDVEGLDAAFKMIILTQFAFGMSLSLDHVQVQGITKISPEDIAEAHQLGYTIKLLGIAEEIDDRIAVSVGPVLVSDQHPLATVQNENNAVMVTGTAVGNTMFYGPGAGELPTANSVLSDITTVAKNIALNTTGNTFNSYRQETVLATPEDVVYPHFIALKMRDVPGMMMKLTAIMTRAEVSFSRIIQNQLGDGNARVVIITHAMNDQQLADITREIGEQENMQLLASYKVLKNA”, the protein production was “failed”.
For “METKTVAITMGDPAGIGPEIIVKALSEDGLNGAPLVVIGCLATLKRLQAKGITPNVELRAIERVAEARFAPGIIHVIDEPLAQPEALEAGKVQAQAGDLAYRCVKRATELALRGDVQAIATAPLNKEALHLAGHNYPGHTELLATLTHSRDYAMVLYTDKLKVIHVSTHIALRKFLDTLSTARVETVIGIADTFLKRVGYVKPRIAVAGVNPHAGENGLFGDEETRILTPAITDARAKGMDVYGPCPPDTVFLQAYEGQYDMVVAMYHDQGHIPLKLLGFYDGVNITAGLPFIRTSADHGTAFDIAWTGKAKSESMAVSIKLAMQLA”, the protein production was “not failed”.
With “METLNDIKKILINVGLYQGFDLTDPKVSEEVNHETANMKWIKDYTSDGNWDNEFKEDLKNFLDYMEVCQLALNDKNFKIASNSLFMAMIYAGNLSLIFDSIKTDISTLLSAEYKKNSFSWPSLDE” the protein production was “not failed”.
For “METLRVSSKSRPNSVAGAIAALLRTKGEVEVQAIGPQAVNQAVKAIAIARGYIAPDNLDLVVKPAFVKLELENEERTALKFSIKAHPLET”, the protein production was “not failed”.
In the case of “METQKTQAENPPKPATSSCRKKTKDDANFLEDVKDHIDDFINASMDDHKNCFNKTIKKMFGLSKAVADKQQSEAKGGVESYLPLQTTVSD”, the protein production is reported as “failed”.
For “METSMRYTSNSKSMKIHAKEKVPVNSKTHLQLHGELDTGTGAPSYFCAMIRHFFPEASTGLGVGLHYDKRQKLRCLVRGKKEFPVRADKRVTFNIKGRCDIDQDLNQKNPKGAAEFAWNIMDFKEDQDVRIKVGYEMFDKVPYMQIRENNWTLNANMKGKWNLRYDL”, the protein production was “failed”.
In the case of “MEVFLMIRRKKTTIFAEAQESSTVLELKRIVQGILKRPPEEQLLFKDDQLLDESKTLRDCGFTSQIAKAQDPATVALVFREDASEGVQIHPYSTPLLPSVMKTGTDSLSDEIKSGLDSLSDEIKSGLDSVWCIKPEAAAGMEVFLMIRRKKTTIFAEAQESSTVLELKRIVQGFLKKPPKDQLLFKDNQLLEERKTLRDCGITGRIAKPEDPAILTLEFREDAFQLLHASPFSCPLIGGVLKNGLDFKRD”, the protein production is reported as “failed”.
In the case of “MEVGMIPRVYLGHEWFGAERILSEYQVPEDCGAQVLFLGIPRNAPEDGGNIEALEYEAYPEMAIKEMEKIRQETIEKFGVKEVFIHHRLGLVKIGEPSFLVLAVGGHREETFKACRYAVDETKKRVPIWKKEIFKEGKGEWVLGEKKNASGQTK”, the protein production is reported as “not failed”.
With “MEVHYMTKIKEIKKVLQQEDADAAWITTPLNIFYFTGYRSEPHERLFALLIPSNEEPVLFCPKMEVEEVKQSPFKGKIIGYLDTENPFDKYSKTFSKMLIESEHLTVKRQRELTKAFNIEHYQDVDQSIKDLRNIK” the protein production was “failed”.
For “MEVIESKWYKKDGASSASIDDVEKLLNTTLPKQYKSFLLWSNGGEGKLGDNYIYIWAIEDVIAYNHDYGIQKYLQKEYWAFGMDGDIGYILHLSDNSIYRVDLGDLDITSIKYIAPSFDDFLGKAIYLNFNKLQNVANNNLTT”, the protein production was “not failed”.
In the case of “MEVKEVELELSSEATFLSKTSIGEITAGEKGLNPMELLLVSIGSCSGVDVYHILKKKRQEVKDIKIFLKGKRREKHPKIYEEIEIKYVAVGKVEEKALEQAVKLSTEKYCSVLAMVKPSTNLKISWEVKWEE”, the protein production is reported as “not failed”.
With “MEVKGFIEIMRPHNCILAGIVGILGALVAYEGIPDIKTLTLIFWVVYFGCSGGNTANDYFDYEIDKINRPNRPLPRGAMSRRAALYYALLQYAIGSILAYFLNIRAFVFATIAYFLTFLYGWKLKPLPLVGNITVAALTAATPIYGAIGVGRIGLAGYLAICAFLVNVSREIMKDIEDIEGDKALGARTLPIIIGEKKAAIIAAIFGFLTVIASFLPVKVGIGLGYAPIIIVDIIIIKASIDVLRDPKAASKGQKLLKIATFVAVISFLAGALTKGV” the protein production was “failed”.
For “MEVKKELNAQSGKKSLMTIENRKRLLLTGVSEVVNFNDEQIVLNTNLGSLIIKGRELKMNKLDVQNGDIAITGTINAVYSGNESSNKKDSIISRLFKLEHHHHHH”, the protein production was “failed”.
With “MEVKKVLVSAFLLTTCLMSGQAQRRNEIQVPDLDGYTTLKCDFHMHSVFSDGLVWPTVRVDEAYRDGLDAISLTEHIEYRPHKQDVVSDHNRSFDLCREQAEKLGILLIKGSEITRAMAPGHFNAIFLSDSNPLEQKDYKDAFREAKKQGAFMFWNHPGWDSQQPDTTKWWPEHTALYQEGCMHGIEVANGHLYMPEAIQWCLDKNLTMIGTSDIHQPIQTDYDFEKGEHRTMTFVFAKERSLQGIREALDNRRTAAYFHELLIGREDLLRPFFEKCVKIEEVSRNEQGVTLSITNVTDLVLKLKKTAHDTLLVYFRDMTLKPHTRYTVRIGFKQGIKGGDVNFEVTNFIVAPDKGLKYTISL” the protein production was “failed”.
In the case of “MEVNKPLPLISIIVPIYNIAEYASECIQSLINQTYKNIEIILVDDGSTDHSPAICDEFAEQDERIKVIHKRNGGLSDARNAGLDVATGEYIGFVDGDDWVDEDMYETLYHLIYEHQADISICTHYTELPNRTKVKYKSKKTKIFSSQKAIATLIEDKIIQNYIWEKLFKRELFTELRFPVGWSFEDIALCYKVFHKARKIVLLQTPKYHYRTRPGSITNSTRNPLKEFQYLQALHEQFQFAAENNIKVRKPKKLVQKTFHFINHIIILPPSSLKKKYINDAFEIAHTYDYLRNWEIGVAATLRRFFVYNYFNAYASVIITYRKYIPARTVKSTTEFFFVRRVATSLATAMRSILYILEHHHHHH”, the protein production is reported as “failed”.
For “MEWFDKISEFMEGLPEWLQAHPRYGYLIVAGILLLWLVGIVCGWRWTYSRPGSWEGNFWLGTLGERSYRFWLGLIVAAATGCALLLFSVTG”, the protein production was “failed”.
With “MEWLFWFDARDYEFARQVLQRGTAVLYAVAFLSTLNQFPALLGERGLLPVPAFLDMARRLARPTLFRWRYSDALLKAVCWTGIGVSVLLVMGLPQTGPPWLPMLAFLTLWFLYMSIVNVGQTFYGFGWEILLLEAGFTVAFLGSNQCPPPTTILVLIVWLVFRLEFGAGMIKIRGGREWRDMTAMFYHHETQPMPGPLSRQAHLLPRPLHKVEVVGNHFAQLVVPFFLFAPQPLASIAAGIIIATQLWLVGTGNFAWLNWVAIVLAFAAVSDPVAHAVFPFIPLEWHQSTETPVWWLAVVVLVTVLLLVFSYQPLLNLFSSRQLMNASFNRWRLVNAYGAFGTVTKQRIEIVVEGTLDDAPDAPDERWLEYGFKGKPGDVRRLPRQWAPYHLRLDWLMWFLPLRTVHEDWFYIFLDRLLEADRRTLGLLRVDPFDGERPRWVRARSYLYRFASRAEFRETGERWVRVLLYDAIPPVSLSPRRRRLP” the protein production was “failed”.
For “MEYKLTPSYLLKENMVLACGNILFADDGFSVHVIEKLQELLTEEEKENIALVDAGAGAPQQVLTLIDSEAKTKKIIVVDIIDYGLEPGEIKILTMDDLPKPEHTKVDSHDWPLSTTMYRVFRDAPHEIDFKVVGCQKKYVSEPDVVIELSEEVQNAVDVAVDIVLSELRGKPIN”, the protein production was “not failed”.
For “MEYKPIRKVVSGNYAAAYAALHARVQVVAAYPITPQTSIIEKIAEFIANGEADIQYIPVESEHSAMAACIGASATGARTFTATSAQGLALMHEMLHWAAGARLPIVMVDVNRAMAPPWSVWDDQTDSLSQRDTGWMQFYAENNQEVYDGVLMAYKVAETVNVPAMVVESAFILSHTYDVVEMIPQELVDEFLPPRKPLYSLANFDEPIAVGALATPNDYYEFRYKLAKAHEEAKKVIKEVGKEFGERFGRDY”, the protein production was “failed”.
For “MEYSSIANGLFLISDINSDAAATISNVFDHTSMNTADLENMPTEKPVEYTKSPGHYYIVLPGQPNKYTAKIIINQLNASGETSDIATTTATSAYTTGLFTISAKYLVDDAFVINAGTGQEMTLTRIMDMDGSDYETFPVDVNQGPQTFTIVPQDQLLHATVNYKFADGTEAAPSAKLSGYAGLTTVSAKSPTISGYTPDQKEVAVAFAPTEKTYTVTYKANPTTPTATESSASSSTADEATTFTPFKIYGKRALYTYKNATFKKNQRVSHYAQKSKAYAPIFEVVGTAKSTSGHLRYKLADGTYVTANADYVGALYWQGMYQKLYVTNPKGTNAYDGTRFAQATKQKHYRQGTALTVVKQTQVGQTTRYELTNGTYVTGNKQWVSPTKPRLVKQVKVKRTIRLYRDVNGSTFIKRIKPGKTLTVTGWDYSHGRNPRLSGTLRYRVAGGYITANRQFVVAN”, the protein production was “failed”.
For “MEYVAFSVAVIILLGLLFNRVFTRARLPGILGMLILGILIGPHGLNLISKSIMDISPDLRVIALIIILLRAGFGINLESLRKVGMTAVKMSFIPDVFEGLAVMVASHYILGLPIIEAGILGFVIAAVSPAVIVPQMLSFIERRMGTAKGIPTIILTGASVDDVVSITLFSVFLGIYQGQQVNLLVEAIGVPLSILTGITGGLALGLALVYLFRRFEIRNTEKTLIILGAAILLKNMGDLISTYLPIAALVGVMVVGLVILERMPETGLKLSEKFNKVWIFAEILLFVLVGAQVDVRLIFHVGLLGLAVITAGLMVRSIGVLLSLKGTDLNLKEKVFCISAYIPKATVQAAIGAIPLAAGVAAGETILAMAVLAILFTAPLGSLAVKWTGERFLEVERGN”, the protein production was “failed”.
In the case of “MFADRLFNAMERNEPAPGMVLVAAPSMESEDFARSVILIIEHSEYATFGVNLASRSDVAVFNVIPEWVPCVTKPQALYIGGPLNQQSVVGVGVTAQGVDAARVDNLTRLANRLVMVNLGADPEEIKPLVSGMRLFAGHAEWAPGQLAQEIENGDWFVAPALPSDVTAPGSVDVWGDVMRRQPMPLPLYSTFPVNVGEN”, the protein production is reported as “not failed”.
With “MFADTCGFMNRSPEHIFGSPEIDYSDVSTGYLEDALIESGERSKRRRLLFEDPSKSFNDDDSQNDWGLHESYSCLNSQFVTPHVNTGERISGVSYCQETISNVYESPDTSVSYDKIYVREKSPTEPSSSNCGNKNKRLITKLVYPFGLVKPGGRENDVTLNDINERILMAPSRPIRHPVGDFASRPCVSGRGPGLSGKAVVALTKIQTQGRGTITIIRTKG” the protein production was “failed”.
